Laboratory results published in PMC7684303.

Target: MBS complex (membrane-bound sulfane sulfur reductase), monomeric 13-subunit complex (Pyrococcus furiosus)
Test: cryo-EM structure; MBS purified in DDM, ~5 mg/ml; grids prepared under aerobic conditions; twofold symmetry applied; overall resolution 4.0 Å

stoichiometry N: 2
Substance: MBS complex (membrane-bound sulfane sulfur reductase), monomeric 13-subunit complex
